Source: article PMC7052086, “Functional characterization of NADPH-cytochrome P450 reductase and cinnamic acid 4-hydroxylase encoding genes from Scoparia dulcis L” (Botanical Studies, 2020)

Test system: NC(=O)C1=CN([C@@H]2O[C@H](COP(=O)(O)OP(=O)(O)OC[C@H]3O[C@@H](n4cnc5c(N)ncnc54)[C@H](OP(=O)(O)O)[C@@H]3O)[C@@H](O)[C@H]2O)C=CC1
Test: purified protein
Assay type: biochemical, Scoparia dulcis
Conditions: 100 μM cytochrome c, varied NADPH; 28 °C, pH 7.5 in table footnote (methods: 25 °C, 50 mM Tris pH 7.4)

Chain of SdCPR (Scoparia dulcis) (chain, as listed by the source): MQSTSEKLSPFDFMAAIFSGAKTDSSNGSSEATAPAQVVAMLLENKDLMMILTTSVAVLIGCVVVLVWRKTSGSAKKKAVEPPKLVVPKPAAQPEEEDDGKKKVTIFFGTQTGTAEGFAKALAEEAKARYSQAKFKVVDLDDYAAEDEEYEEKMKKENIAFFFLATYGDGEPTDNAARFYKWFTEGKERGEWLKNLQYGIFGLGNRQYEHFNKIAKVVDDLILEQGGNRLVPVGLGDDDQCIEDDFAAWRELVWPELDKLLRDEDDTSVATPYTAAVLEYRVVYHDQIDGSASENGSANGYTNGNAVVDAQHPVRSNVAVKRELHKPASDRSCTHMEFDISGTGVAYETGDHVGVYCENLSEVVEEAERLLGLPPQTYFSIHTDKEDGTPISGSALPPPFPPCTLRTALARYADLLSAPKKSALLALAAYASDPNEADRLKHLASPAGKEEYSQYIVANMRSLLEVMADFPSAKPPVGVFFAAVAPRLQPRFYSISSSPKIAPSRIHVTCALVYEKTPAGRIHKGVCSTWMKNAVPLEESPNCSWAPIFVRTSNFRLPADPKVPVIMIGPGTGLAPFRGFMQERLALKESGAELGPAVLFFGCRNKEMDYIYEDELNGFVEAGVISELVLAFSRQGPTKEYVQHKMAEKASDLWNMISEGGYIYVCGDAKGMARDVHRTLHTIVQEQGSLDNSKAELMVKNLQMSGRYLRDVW

SdCPR (Scoparia dulcis) showed a Km of 4.6 ± 0.9 µM, a Vmax of 2.3 µmol/min/mg and a kcat of 2.96 ± 0.13 s⁻¹. The kcat/Km was 665000 M⁻¹ s⁻¹.
